Here are results for nine molecules from patent US20140087995A1 (published 2014).

Numbered stars: 1 amine (or outer) side, 2 acyl side, 3 side chain; on linkers, the order of the positions; unused ones are H or OH. Bridge positions count the residues as written; N and C are the ends. * marks the point of attachment. C20 diacid = O=C(O)CCCCCCCCCCCCCCCCCCC(=O)*; γGlu = O=C(O)[C@H](CCC(=O)[*:2])N[*:1]

For this experiment, the target named is T1, human amylin receptor (human, UniProt P30988 25-474; O60896 24-148, limits assumed).
T1 construct: whole, on cells; Used as cell membranes prepared from the Amylin 3(a)/CRE-luc BHK cells (Assay V); also called hAmylin-R; hAmylinR
T1 sequence (looked up) 1: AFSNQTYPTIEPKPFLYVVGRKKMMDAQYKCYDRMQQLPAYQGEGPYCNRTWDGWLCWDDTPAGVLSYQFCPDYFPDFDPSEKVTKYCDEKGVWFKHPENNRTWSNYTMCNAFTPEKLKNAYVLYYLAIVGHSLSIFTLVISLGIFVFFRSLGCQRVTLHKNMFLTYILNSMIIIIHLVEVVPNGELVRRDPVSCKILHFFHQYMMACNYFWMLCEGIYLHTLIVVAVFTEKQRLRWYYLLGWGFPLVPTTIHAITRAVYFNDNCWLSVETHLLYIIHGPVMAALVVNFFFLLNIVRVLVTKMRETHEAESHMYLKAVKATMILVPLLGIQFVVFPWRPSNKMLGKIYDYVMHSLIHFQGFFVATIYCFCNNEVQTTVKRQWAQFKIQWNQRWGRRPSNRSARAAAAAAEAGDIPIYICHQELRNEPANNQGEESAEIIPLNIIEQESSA
T1 sequence (looked up) 2: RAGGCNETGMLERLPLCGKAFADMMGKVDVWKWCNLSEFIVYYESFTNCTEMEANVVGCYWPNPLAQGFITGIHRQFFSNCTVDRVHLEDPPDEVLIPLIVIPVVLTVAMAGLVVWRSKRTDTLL
Put plainly: SPA competition vs 125I-rat amylin, membranes of amylin 3(a) receptor BHK cells (Assay V). The method, then: The binding assay was performed using scintillation proximity assay (SPA) beads (RPNQ0001) from PerkinElmer and cell membranes from the Amylin 3(a)/CRE-luc cells (as described in Assay (II)) were used. Membranes were prepared in the following way; the cells were rinsed with PBS and incubated with Versene for approximately 5 min before harvesting. The cells were flushed with PBS and the cell-suspension was centrifuged for 5 min at 1000 rpm. Cells were homogenized (ultrathurrax) in a buffer containing 20 mM Na-HEPES and 10 mM EDTA (pH 7.4) and centrifuged at 20.000 rpm for 15 min. The resulting pellet was resuspended, homogenized and centrifuged (20.000 rpm, 15 min) in a buffer containing 20 mM Na-HEPES and 0.1 mM EDTA (pH 7.4, buffer 2). The resulting pellet was resuspended in buffer 2 and protein concentration was measured (BCA protein Assay, Pierce). The homogenate was kept cold during the whole procedure. The membranes were kept at −80° C. until use. The assay was performed in a 384 well Optiplate (PerkinElmer) in a total volume of 40 ul. Membranes were mixed with SPA beads. Final concentration of membranes 35 ng/μL final and SPA beads was 0.05 mg/well. Test-compounds were dissolved in DMSO and further diluted in assay buffer (50 mM Hepes, pH 7.4, 1 mM CaCl2, 5 mM MgCl₂, 0.1% OA and 0.02% Tween20). […] The final mixture was incubated with shaking at 400 rpm for 120 min at 25° C. prior to centrifugation (1500 rpm, 10 min). Samples were analyzed on TopCounter™ (Packard). The IC₅₀ was calculated using (one site binding competition analysis) GraphPad Prism5 as a measure of receptor affinity.

B1: N^α1 N^α1-[(4S)-4-carboxy-4-[[(4S)-4-carboxy-4-(19-carboxynonadecanoylamino)butanoyl]amino]butanoyl]-[Glu14,Arg17,Pro21,Pro27]-h-amylin (peptide)
peptide: {C20 diacid-γGlu-γGlu}-KCNTATCATQRLAEFLRHSSPNFGAIPSSTNVGSNTY-NH2
modifications: disulfide 2-7
SMILES: CC[C@H](C)[C@H](NC(=O)[C@H](C)NC(=O)CNC(=O)[C@H](Cc1ccccc1)NC(=O)[C@H](CC(N)=O)NC(=O)[C@@H]1CCCN1C(=O)[C@H](CO)NC(=O)[C@H](CO)NC(=O)[C@H](Cc1c[nH]cn1)NC(=O)[C@H](CCCNC(=N)N)NC(=O)[C@H](CC(C)C)NC(=O)[C@H](Cc1ccccc1)NC(=O)[C@H](CCC(=O)O)NC(=O)[C@H](C)NC(=O)[C@H](CC(C)C)NC(=O)[C@H](CCCNC(=N)N)NC(=O)[C@H](CCC(N)=O)NC(=O)[C@@H](NC(=O)[C@H](C)NC(=O)[C@@H]1CSSC[C@H](NC(=O)[C@H](CCCCN)NC(=O)CC[C@H](NC(=O)CC[C@H](NC(=O)CCCCCCCCCCCCCCCCCCC(=O)O)C(=O)O)C(=O)O)C(=O)N[C@@H](CC(N)=O)C(=O)N[C@@H]([C@@H](C)O)C(=O)N[C@@H](C)C(=O)N[C@@H]([C@@H](C)O)C(=O)N1)[C@@H](C)O)C(=O)N1CCC[C@H]1C(=O)N[C@@H](CO)C(=O)N[C@@H](CO)C(=O)N[C@H](C(=O)N[C@@H](CC(N)=O)C(=O)N[C@H](C(=O)NCC(=O)N[C@@H](CO)C(=O)N[C@@H](CC(N)=O)C(=O)N[C@H](C(=O)N[C@@H](Cc1ccc(O)cc1)C(N)=O)[C@@H](C)O)C(C)C)[C@@H](C)O
notes: also called compound 15
For orientation: IC50 means the point on the concentration scale where inhibition reaches its midpoint. Read a low IC50 as greater potency. In turn, B1 showed an IC50 of 0.597 nM.

B2: N^α1-[2-[2-[2-[[2-[2-[2-[[(4S)-4-carboxy-4-(19-carboxynonadecanoylamino)butanoyl]amino]ethoxy]ethoxy]acetyl]amino]ethoxy]ethoxy]acetyl]-[Glu14,Arg17,Pro21,Pro27 … (peptide)
peptide: KCNTATCATQRLAEFLRHSSPNFGAIPSSTNVGSNTY
modifications: C20 diacid-gGlu-2xOEG on alpha amino group of the N-terminal residue; Cys2-Cys7 disulfide and C-terminal amide as in h-amylin
notes: also called compound 19
Molecule B2 gave an IC50 of 0.556 nM.

B3: N^α1-[(4S)-4-carboxy-4-(19-carboxynonadecanoylamino)butanoyl]-[Arg17,Pro21,Pro27,Pro31,Glu35]-h-amylin (peptide)
peptide: {C20 diacid-γGlu}-KCNTATCATQRLANFLRHSSPNFGAIPSSTPVGSETY-NH2
modifications: disulfide 2-7
SMILES: CC[C@H](C)[C@H](NC(=O)[C@H](C)NC(=O)CNC(=O)[C@H](Cc1ccccc1)NC(=O)[C@H](CC(N)=O)NC(=O)[C@@H]1CCCN1C(=O)[C@H](CO)NC(=O)[C@H](CO)NC(=O)[C@H](Cc1c[nH]cn1)NC(=O)[C@H](CCCNC(=N)N)NC(=O)[C@H](CC(C)C)NC(=O)[C@H](Cc1ccccc1)NC(=O)[C@H](CC(N)=O)NC(=O)[C@H](C)NC(=O)[C@H](CC(C)C)NC(=O)[C@H](CCCNC(=N)N)NC(=O)[C@H](CCC(N)=O)NC(=O)[C@@H](NC(=O)[C@H](C)NC(=O)[C@@H]1CSSC[C@H](NC(=O)[C@H](CCCCN)NC(=O)CC[C@H](NC(=O)CCCCCCCCCCCCCCCCCCC(=O)O)C(=O)O)C(=O)N[C@@H](CC(N)=O)C(=O)N[C@@H]([C@@H](C)O)C(=O)N[C@@H](C)C(=O)N[C@@H]([C@@H](C)O)C(=O)N1)[C@@H](C)O)C(=O)N1CCC[C@H]1C(=O)N[C@@H](CO)C(=O)N[C@@H](CO)C(=O)N[C@H](C(=O)N1CCC[C@H]1C(=O)N[C@H](C(=O)NCC(=O)N[C@@H](CO)C(=O)N[C@@H](CCC(=O)O)C(=O)N[C@H](C(=O)N[C@@H](Cc1ccc(O)cc1)C(N)=O)[C@@H](C)O)C(C)C)[C@@H](C)O
notes: also called compound 28
As to B3, the IC50 is 0.61 nM.

B4: N^α1-[(4S)-4-carboxy-4-(19-carboxynonadecanoylamino)butanoyl]-[His14,Arg17,Pro21,Pro27,Glu35]-h-amylin (peptide)
peptide: {C20 diacid-γGlu}-KCNTATCATQRLAHFLRHSSPNFGAIPSSTNVGSETY-NH2
modifications: disulfide 2-7
SMILES: CC[C@H](C)[C@H](NC(=O)[C@H](C)NC(=O)CNC(=O)[C@H](Cc1ccccc1)NC(=O)[C@H](CC(N)=O)NC(=O)[C@@H]1CCCN1C(=O)[C@H](CO)NC(=O)[C@H](CO)NC(=O)[C@H](Cc1c[nH]cn1)NC(=O)[C@H](CCCNC(=N)N)NC(=O)[C@H](CC(C)C)NC(=O)[C@H](Cc1ccccc1)NC(=O)[C@H](Cc1c[nH]cn1)NC(=O)[C@H](C)NC(=O)[C@H](CC(C)C)NC(=O)[C@H](CCCNC(=N)N)NC(=O)[C@H](CCC(N)=O)NC(=O)[C@@H](NC(=O)[C@H](C)NC(=O)[C@@H]1CSSC[C@H](NC(=O)[C@H](CCCCN)NC(=O)CC[C@H](NC(=O)CCCCCCCCCCCCCCCCCCC(=O)O)C(=O)O)C(=O)N[C@@H](CC(N)=O)C(=O)N[C@@H]([C@@H](C)O)C(=O)N[C@@H](C)C(=O)N[C@@H]([C@@H](C)O)C(=O)N1)[C@@H](C)O)C(=O)N1CCC[C@H]1C(=O)N[C@@H](CO)C(=O)N[C@@H](CO)C(=O)N[C@H](C(=O)N[C@@H](CC(N)=O)C(=O)N[C@H](C(=O)NCC(=O)N[C@@H](CO)C(=O)N[C@@H](CCC(=O)O)C(=O)N[C@H](C(=O)N[C@@H](Cc1ccc(O)cc1)C(N)=O)[C@@H](C)O)C(C)C)[C@@H](C)O
notes: also called compound 30
As to B4, the IC50 is 0.919 nM.

B5: N^α1-[(4S)-4-carboxy-4-(19-carboxynonadecanoylamino)butanoyl]-[Arg17,Pro21,Pro27,His34]-h-amylin (peptide)
peptide: KCNTATCATQRLANFLRHSSPNFGAIPSSTNVGHNTY
modifications: C20 diacid-gGlu on alpha amino group of the N-terminal residue; Cys2-Cys7 disulfide and C-terminal amide as in h-amylin
notes: also called compound 40
With B5, the IC50 came to 0.549 nM.

B6: N^α1-[(4S)-4-carboxy-4-(19-carboxynonadecanoylamino)butanoyl]-[Glu14,Arg17,Pro21,Pro27,Arg35]-h-amylin (peptide)
peptide: {C20 diacid-γGlu}-KCNTATCATQRLAEFLRHSSPNFGAIPSSTNVGSRTY-NH2
modifications: disulfide 2-7
SMILES: CC[C@H](C)[C@H](NC(=O)[C@H](C)NC(=O)CNC(=O)[C@H](Cc1ccccc1)NC(=O)[C@H](CC(N)=O)NC(=O)[C@@H]1CCCN1C(=O)[C@H](CO)NC(=O)[C@H](CO)NC(=O)[C@H](Cc1c[nH]cn1)NC(=O)[C@H](CCCNC(=N)N)NC(=O)[C@H](CC(C)C)NC(=O)[C@H](Cc1ccccc1)NC(=O)[C@H](CCC(=O)O)NC(=O)[C@H](C)NC(=O)[C@H](CC(C)C)NC(=O)[C@H](CCCNC(=N)N)NC(=O)[C@H](CCC(N)=O)NC(=O)[C@@H](NC(=O)[C@H](C)NC(=O)[C@@H]1CSSC[C@H](NC(=O)[C@H](CCCCN)NC(=O)CC[C@H](NC(=O)CCCCCCCCCCCCCCCCCCC(=O)O)C(=O)O)C(=O)N[C@@H](CC(N)=O)C(=O)N[C@@H]([C@@H](C)O)C(=O)N[C@@H](C)C(=O)N[C@@H]([C@@H](C)O)C(=O)N1)[C@@H](C)O)C(=O)N1CCC[C@H]1C(=O)N[C@@H](CO)C(=O)N[C@@H](CO)C(=O)N[C@H](C(=O)N[C@@H](CC(N)=O)C(=O)N[C@H](C(=O)NCC(=O)N[C@@H](CO)C(=O)N[C@@H](CCCNC(=N)N)C(=O)N[C@H](C(=O)N[C@@H](Cc1ccc(O)cc1)C(N)=O)[C@@H](C)O)C(C)C)[C@@H](C)O
notes: also called compound 16
B6 registered an IC50 of 0.894 nM.

B7: N^α1-[(4S)-4-carboxy-4-(19-carboxynonadecanoylamino)butanoyl]-[Arg17,Pro21,Pro27,Glu35]-h-amylin (peptide)
peptide: KCNTATCATQRLANFLRHSSPNFGAIPSSTNVGSETY
modifications: C20 diacid-gGlu on alpha amino group of the N-terminal residue; Cys2-Cys7 disulfide and C-terminal amide as in h-amylin
notes: also called compound 23
With B7, the IC50 worked out at 0.871 nM.

B8: N^α1-[(4S)-4-carboxy-4-(19-carboxynonadecanoylamino)butanoyl]-[Glu14,Arg17,Pro21,Pro27,Pro31]-h-amylin (peptide)
peptide: {C20 diacid-γGlu}-KCNTATCATQRLAEFLRHSSPNFGAIPSSTPVGSNTY-NH2
modifications: disulfide 2-7
SMILES: CC[C@H](C)[C@H](NC(=O)[C@H](C)NC(=O)CNC(=O)[C@H](Cc1ccccc1)NC(=O)[C@H](CC(N)=O)NC(=O)[C@@H]1CCCN1C(=O)[C@H](CO)NC(=O)[C@H](CO)NC(=O)[C@H](Cc1c[nH]cn1)NC(=O)[C@H](CCCNC(=N)N)NC(=O)[C@H](CC(C)C)NC(=O)[C@H](Cc1ccccc1)NC(=O)[C@H](CCC(=O)O)NC(=O)[C@H](C)NC(=O)[C@H](CC(C)C)NC(=O)[C@H](CCCNC(=N)N)NC(=O)[C@H](CCC(N)=O)NC(=O)[C@@H](NC(=O)[C@H](C)NC(=O)[C@@H]1CSSC[C@H](NC(=O)[C@H](CCCCN)NC(=O)CC[C@H](NC(=O)CCCCCCCCCCCCCCCCCCC(=O)O)C(=O)O)C(=O)N[C@@H](CC(N)=O)C(=O)N[C@@H]([C@@H](C)O)C(=O)N[C@@H](C)C(=O)N[C@@H]([C@@H](C)O)C(=O)N1)[C@@H](C)O)C(=O)N1CCC[C@H]1C(=O)N[C@@H](CO)C(=O)N[C@@H](CO)C(=O)N[C@H](C(=O)N1CCC[C@H]1C(=O)N[C@H](C(=O)NCC(=O)N[C@@H](CO)C(=O)N[C@@H](CC(N)=O)C(=O)N[C@H](C(=O)N[C@@H](Cc1ccc(O)cc1)C(N)=O)[C@@H](C)O)C(C)C)[C@@H](C)O
notes: also called compound 31
B8: the IC50 is 0.204 nM.

B9: N^α1-[(4S)-4-carboxy-4-(19-carboxynonadecanoylamino)butanoyl]-[Arg17,Pro21,Pro27,Arg34]-h-amylin (peptide)
peptide: KCNTATCATQRLANFLRHSSPNFGAIPSSTNVGRNTY
modifications: C20 diacid-gGlu on alpha amino group of the N-terminal residue; Cys2-Cys7 disulfide and C-terminal amide as in h-amylin
notes: also called compound 39
Molecule B9 yielded a concentration for half-maximal inhibition (IC50) of 0.665 nM.
